# T1: GAAP-1 (IPCS-BF1, 2.5 kb PRDII-BF1 splice product) (Homo sapiens, UniProt P15822 SEQ:1-693)
# T1 chain: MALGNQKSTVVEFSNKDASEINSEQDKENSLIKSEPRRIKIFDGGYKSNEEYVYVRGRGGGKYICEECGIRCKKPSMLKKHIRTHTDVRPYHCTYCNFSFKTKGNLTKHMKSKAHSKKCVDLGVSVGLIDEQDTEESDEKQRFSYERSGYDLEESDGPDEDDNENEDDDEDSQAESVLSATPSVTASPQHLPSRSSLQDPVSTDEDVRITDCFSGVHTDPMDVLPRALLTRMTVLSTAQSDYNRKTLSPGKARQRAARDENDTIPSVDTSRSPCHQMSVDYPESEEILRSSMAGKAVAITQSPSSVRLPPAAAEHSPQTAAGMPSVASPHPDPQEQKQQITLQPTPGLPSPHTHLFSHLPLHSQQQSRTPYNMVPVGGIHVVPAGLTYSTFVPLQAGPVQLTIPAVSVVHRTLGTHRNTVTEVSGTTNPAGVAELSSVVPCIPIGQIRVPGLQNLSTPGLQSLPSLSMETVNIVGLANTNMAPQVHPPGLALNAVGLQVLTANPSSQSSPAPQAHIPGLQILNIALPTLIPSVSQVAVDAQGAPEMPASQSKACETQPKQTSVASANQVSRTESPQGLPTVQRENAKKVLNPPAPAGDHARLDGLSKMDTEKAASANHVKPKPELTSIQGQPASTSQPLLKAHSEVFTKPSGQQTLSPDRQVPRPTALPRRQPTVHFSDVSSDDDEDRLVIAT
# Key:
# [1] = target: T1, GAAP-1 (IPCS-BF1, 2.5 kb PRDII-BF1 …); assay: EMSA; one complex; competed by 50-fold excess; weaker than NF-kB probe in vitro; settings: tags: none (TNT reticulocyte lysate, pcDNA3.1); label: 32P
# Protocol: FIG. 5a)—EMSA using the IPCS-p53 probe and in vitro translated GAAP-1 (lane1), GAAP-1 mtZ1 (lane 3), GAAP-1 mt Z2 (lane 5), or reticulocyte lysat with the empty expression vector (lane 7). Even lanes: 50 fold molar excess of IPCS-p53 oligonucleotide was added to the reaction of the previous lane. The arrow indicates the specific complex.
# Synthetic double stranded oligonucleotide probes were labelled with α-³²P dCTP (Amersham Corp.) by “filling-in” with Sequenase, and then purified on Sephadex G-50. The protein-DNA binding reactions were carried out using 5 μg of nuclear extract and 0.1 fmol of probe in 20 μl of binding buffer (20 mM Tris-HCl, 25 mM KCl, 1 mM DTT, 1 mM EDTA, 0.1% Nonidet P40, 4% glycerol, 1 mg/ml bovine serum alcbumin, μg/ml poly(dI-dC)) for 20 min at 4° C. In vitro translation products were generated by 50 μl of TNT coupled reticulocyte Lysate System (Promega) and 1 μg of the appropriate plasmid. […]
# PRDII-BF1 was previously described as a protein binding to an NF-κB site whose ability to recognise the DNA is determined by two pairs of zinc fingers, one of them present in GAAP-1 (Fan 90, Gaynor, Baldwin). […] To confirm the binding specificity of the cloned GAAP-1 for the IPCS target sequence, in vitro translated GAAP-1 was incubated with labelled IPCS or NF-κB oligonucleotide and analysed by Electro Mobility Shift Assay (EMSA). […]
# [2] = target: T1, GAAP-1 (IPCS-BF1, 2.5 kb PRDII-BF1 …); assay: EMSA; two complexes (possible homodimer); considerably stronger than IPCS-p53; settings: tags: none (TNT reticulocyte lysate, pcDNA3.1); label: 32P
# Protocol: The protein-DNA binding reactions were carried out using 5 μg of nuclear extract and 0.1 fmol of probe in 20 μl of binding buffer (20 mM Tris-HCl, 25 mM KCl, 1 mM DTT, 1 mM EDTA, 0.1% Nonidet P40, 4% glycerol, 1 mg/ml bovine serum alcbumin, μg/ml poly(dI-dC)) for 20 min at 4° C. In vitro translation products were generated by 50 μl of TNT coupled reticulocyte Lysate System (Promega) and 1 μg of the appropriate plasmid. 5 μl of the in vitro product was used instead of the nuclear extract when required. The reaction mixture was then electrophoresed on a 6% non denaturing acrylamide gel. Competition experiments were carried out using a 50-fold molar excess of the unlabelled probe. The following oligonucleotides (and their complementary strands) were used in these studies:
# PRDII-BF1 was previously described as a protein binding to an NF-κB site whose ability to recognise the DNA is determined by two pairs of zinc fingers, one of them present in GAAP-1 (Fan 90, Gaynor, Baldwin). […] To confirm the binding specificity of the cloned GAAP-1 for the IPCS target sequence, in vitro translated GAAP-1 was incubated with labelled IPCS or NF-κB oligonucleotide and analysed by Electro Mobility Shift Assay (EMSA). […] Furthermore, the affinity of in vitro translated GAAP-1 was considerably stronger for the NF-κB probe than for the IPCS-P53 probe. […]
Binder,binding result [1],binding result [2]
IPCS-p53 EMSA probe (dsDNA) DNA 1: AATGCAGGATTCCTCCAAAATGATTTCCAC DNA 2: GTGGAAATCATTTTGGAGGAATCCTGCATT,binds,–
NF-kB-MHC (dsDNA) DNA 1: GATCCTCTGGGGATTCCCCATGGA DNA 2: TCCATGGGGAATCCCCAGAGGATC,–,binds
